Patent publication US8889620B2, “Pharmaceutical compositions comprising peptide antagonists of vascular endothelial growth factor” (Children's Medical Center Corporation, priority 1997, dated 2014)
“Also recorded” adds a separate entry of the source. Where no end group is shown, it is not given here.

Assays:
VEGF165R [1] = biological target: T1, VEGF165R (Homo sapiens, UniProt O14786); test: Cross-linking of 125I-VEGF165 to VEGF165R on 231 cells; type: binding; parameters: to 231 cells which express only VEGF165R; endogenous in cells; host or cells: MDA-MB-231 (ATCC); details: 15 ug/ml fusion protein, FIG. 4 lane 4
Procedure: (§1) FIG. 4. GST-EX 7+8 fusion protein inhibits cross-linking of ^125I-VEGF165 to ^125I-VEGF165R and to KDR/Flk-1. ^125I-VEGF165 (5 ng/ml) was bound to subconfluent cultures of HUVEC (lanes 1 and 2) and MDA-MB-23 1 cells (lanes 3 and 4) in 6-cm dishes. The binding was carried out in the presence (lanes 2 and 4) or the absence (lanes 1 and 3) of 15 ug/ml GST-Ex 7+8. Heparin (1 ug/ml) was added to each dish. At the end of a 2-h incubation, ^125I-VEGF165 was chemically cross-linked to the cell surface. The cells were lysed, and proteins were resolved by 6% SDS-PAGE. The gel was dried and exposed to x-ray film.
(§2) Binding and cross-linking experiments using 125I-VEGF165 and 125I-VEGF121 were performed at described previously (Gitay-Goren, et al., J. Biol. Chem., 287, 6003-6096 (1992), Soker, et al., J: Biol. Chem., 271,5761-5767 (1996)). VEGF binding was quantified by measuring the cell-associated radioactivity in a y-counter (Beckman, Gamma 5500). The counts represent the average of three walls. All experiments were repeated at least three times, and similar results were obtained. 125I-VEGF cross-linked complexes were resolved by 6% SDS-PAGE, and the gels were exposed to a phosphor screen and scanned after 24 h by a PhosphorImager (Molecular Dynamics). Subsequently, the gels were exposed to x-ray film.

KDR/Flk-1 = test: Cross-linking of 125I-VEGF121 to KDR/Flk-1 of HUVEC; type: binding, human; details: 15 ug/ml fusion protein, FIG. 8 lane 2
Procedure: FIG. 8. GST-Ex 7+8 fusion protein inhibits cross-linking of ^125I-VEGF121 to KDR/Flk-1 of HUVEC ^125I-VEGF121 (2˜0 ng/ml) was bound to subconfluent cultures of HUVEC in 6-cm dishes. The binding was carried out in the presence (lane 2) or the absence (lane 1) of 15 ug/ml GST-Ex 7+8. Heparin (1 ug/ml) was added to each dish. At the end of a 2-h incubation, ^125I-VEGF was chemically cross-linked to the cell surface. The cells were lysed, and proteins were resolved by 6% SDS-PAGE. The gel was dried and exposed to x-ray film.
as §2

[2] = system: VEGF121-induced proliferation of HUVEC; test: Inhibition of VEGF121-stimulated HUVEC proliferation; type: cell-based, human
Procedure: FIG. 7. GST-Ex 7+8 fusion protein inhibits VEGF165 and VEGF121-stimulated HUVEC proliferation. Increasing concentration of VEGF165 (circles) or VEGF121 (square) with 15 ug/ml GST-Ex 7+8 (closed symbols) or without GST-Ex 7+8 (open symbols) were added to HUVEC, and [*H]thymidine incorporation into the DNA was measured as in FIG. 2. The results represent the average counts of three wells and the standard deviations were determined.
HUVEC were seeded in gelatin-coated 96-well dishes at 4,000 cells/200 Ul/well in M-199 containing 5% FCS and GPS. After 24 H, VEGF isoforms and VEGF exon 7-GST fusion proteins were added to the wells at the same time. The cells were incubated for 72 h, and [3H]thymidine (1 pC/ml) was added for 10-12 h. The medium was aspirated, and the cells were trypsinized and harvested by an automatic cell harvester (TOMTEC) and loaded onto Filtermats (Wallac). The Filtermats were scanned and cpm were determined by a MicroBeta counter (Wallac). The results represent the average of samples assayed in triplicate, and the standard derivations were determined. All experiments were repeated at least three times and similar results were obtained.

VEGF165R [3] = biological target: T1, VEGF165R; test: Cross-linking of 125I-VEGF165 to VEGF165R on HUVEC; type: binding; parameters: HUVEC, which express both KDR/Flk-1 and VEGF165R; endogenous in cells; host or cells: HUVEC (ATCC); details: 15 ug/ml fusion protein, FIG. 4 lane 2
Procedure: as §1, §2

[4] = biological target: T2, KDR/Flk-1 on PAE-KDR cells (Homo sapiens, UniProt P35968); test: Inhibition of 125I-VEGF165 binding to PAE-KDR cells; parameters: species or system porcine endothelial cells transfected to express KDR/Flk-1; details: 125I-VEGF165 5 ng/ml, FIG. 3C
T2 construct: expressed in transfected cells; host or cells: porcine endothelial cells (PAE), gift of Dr. Claesson-Welsh
Procedure: FIGS. 3A-3C. Inhibition of ^125I-VEGF165 binding to HUVEC, MDA MB 231 cells, and PAE-KDR cells by GST-EX 7+8. ^125I-VEGF165 (5 ng,/ml) was bound to subconfluent cultures of HUVEC (3A), MDA MB 23 1 cells (3B), and PAE-KDR cells (3C) in 48-well dishes in the presence of increasing amounts of GST-Ex 7+8 (closed 20 square) or control GST protein (open squares). At the end of a 2-h incubation, the cells were washed and lysed, and the cell-associated radioactivity was determined with a γ-counter. The counts obtained are expressed as the percentage of the counts obtained in the presence of PBS without addition of GST or fusion protein.
Human umbilical vein endothelial cells (HUVEC) were obtained from the American Type Culture Collection (ATCC) (Rockville, Md.) and grown on gelatin-coated dishes in M-199 medium containing 20% fetal calf serum (FCS) and a mixture of glutamine, penicillin, and streptomycin (GPS). Basic FGF (1 nglml) was added to the culture medium every other day. Porcine endothelial cells (PAE), parental and transfected to express KDRElk-1 (PAE-KDR), were kindly provided by Dr. Lema Claesson-Welsh and grown in F12 medium containing 10% FCS and GPS as described (Waltenberger, et al., J. Biol. Chem., 269,26988-26995 (1994)). MDAMB-231 (231) cells were obtained from ATCC and grown in Bulbecoo's modified Eagle's medium containing 10% FCS and GPS.
as §2

T1 sequence (O14786 22-923): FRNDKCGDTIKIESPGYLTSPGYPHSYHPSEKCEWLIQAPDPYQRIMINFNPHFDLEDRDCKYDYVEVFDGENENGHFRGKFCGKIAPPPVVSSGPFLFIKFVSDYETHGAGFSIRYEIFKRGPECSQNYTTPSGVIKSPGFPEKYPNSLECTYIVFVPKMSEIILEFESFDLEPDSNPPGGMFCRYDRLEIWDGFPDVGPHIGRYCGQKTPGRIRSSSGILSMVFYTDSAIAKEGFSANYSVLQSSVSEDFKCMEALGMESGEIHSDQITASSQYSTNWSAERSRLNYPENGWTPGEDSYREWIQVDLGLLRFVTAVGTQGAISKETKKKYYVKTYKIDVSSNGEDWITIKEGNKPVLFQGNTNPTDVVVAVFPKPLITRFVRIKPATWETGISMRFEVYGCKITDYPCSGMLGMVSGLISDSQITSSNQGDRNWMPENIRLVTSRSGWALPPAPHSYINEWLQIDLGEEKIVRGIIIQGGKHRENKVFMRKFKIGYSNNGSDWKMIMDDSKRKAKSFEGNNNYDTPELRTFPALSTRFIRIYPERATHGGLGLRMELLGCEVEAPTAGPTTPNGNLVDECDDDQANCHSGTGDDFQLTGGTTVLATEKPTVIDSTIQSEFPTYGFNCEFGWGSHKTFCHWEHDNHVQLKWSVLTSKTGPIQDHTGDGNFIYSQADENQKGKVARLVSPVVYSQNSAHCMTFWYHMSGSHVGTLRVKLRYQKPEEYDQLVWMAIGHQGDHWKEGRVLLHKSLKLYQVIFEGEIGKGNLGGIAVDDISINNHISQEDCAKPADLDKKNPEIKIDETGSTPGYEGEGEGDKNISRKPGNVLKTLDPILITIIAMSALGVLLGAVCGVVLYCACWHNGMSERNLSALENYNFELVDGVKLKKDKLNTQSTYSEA
T2 sequence (P35968 20-1356): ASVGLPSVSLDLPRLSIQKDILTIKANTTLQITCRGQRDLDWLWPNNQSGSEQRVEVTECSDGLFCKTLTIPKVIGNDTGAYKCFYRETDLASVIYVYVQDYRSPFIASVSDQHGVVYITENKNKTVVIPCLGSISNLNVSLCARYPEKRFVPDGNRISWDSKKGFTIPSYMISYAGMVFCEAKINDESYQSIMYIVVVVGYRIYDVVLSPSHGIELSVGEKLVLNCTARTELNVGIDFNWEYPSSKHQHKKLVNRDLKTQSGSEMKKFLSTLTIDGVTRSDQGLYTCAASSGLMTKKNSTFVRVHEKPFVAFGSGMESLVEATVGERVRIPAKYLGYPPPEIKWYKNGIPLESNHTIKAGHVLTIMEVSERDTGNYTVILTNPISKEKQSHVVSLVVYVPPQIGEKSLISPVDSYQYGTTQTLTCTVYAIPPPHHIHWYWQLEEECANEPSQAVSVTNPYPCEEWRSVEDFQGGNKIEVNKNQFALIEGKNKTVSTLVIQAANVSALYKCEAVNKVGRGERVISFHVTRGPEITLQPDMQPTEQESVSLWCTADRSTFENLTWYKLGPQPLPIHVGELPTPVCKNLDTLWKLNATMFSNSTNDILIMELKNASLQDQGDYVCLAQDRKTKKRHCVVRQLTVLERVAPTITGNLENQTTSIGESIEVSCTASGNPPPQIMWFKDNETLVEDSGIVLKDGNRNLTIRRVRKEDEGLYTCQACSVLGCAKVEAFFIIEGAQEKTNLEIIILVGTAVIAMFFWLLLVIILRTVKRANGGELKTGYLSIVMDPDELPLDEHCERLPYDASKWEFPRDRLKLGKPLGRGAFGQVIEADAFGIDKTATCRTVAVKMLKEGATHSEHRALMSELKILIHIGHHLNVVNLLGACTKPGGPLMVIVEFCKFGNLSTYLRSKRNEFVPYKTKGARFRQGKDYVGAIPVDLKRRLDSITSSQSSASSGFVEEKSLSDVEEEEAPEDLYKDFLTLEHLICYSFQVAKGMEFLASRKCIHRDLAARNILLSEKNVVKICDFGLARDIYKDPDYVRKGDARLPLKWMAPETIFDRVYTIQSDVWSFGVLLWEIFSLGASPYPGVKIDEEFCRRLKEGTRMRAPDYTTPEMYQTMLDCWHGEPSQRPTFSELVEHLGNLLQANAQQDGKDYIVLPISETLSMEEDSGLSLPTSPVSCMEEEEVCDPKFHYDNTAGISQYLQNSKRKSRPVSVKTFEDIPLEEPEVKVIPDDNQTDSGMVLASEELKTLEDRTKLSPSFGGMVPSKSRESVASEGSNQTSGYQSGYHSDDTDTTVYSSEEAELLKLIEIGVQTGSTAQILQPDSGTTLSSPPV

- formation of 125I-VEGF165/VEGF165R cross-linked complexes on 231 cells (in words) (VEGF165R [1]): markedly inhibited
- formation of 165-175-kDa 125I-VEGF165/VEGF165R cross-linked complexes on HUVEC (in words) (VEGF165R [3]): markedly inhibited
- inhibition of 125I-VEGF165 binding to PAE-KDR cells (in words) [4]: did not inhibit
Substance: GST-Ex 7+8: GST fusion protein containing the peptide encoded by VEGF165 exons 7 and 8 (PCGPCSERRKHLFVQDPQTCKCSCKNTDSRCKARQLELNERTCRCDKPRR; cysteine pairing not given here; also: GST fusion protein, side of fusion not given here)
- formation of 240-kDa 125I-VEGF121/KDR/Flk-1 cross-linked complexes on HUVEC (in words) (KDR/Flk-1): significantly inhibited; also recorded: diminished binding
- inhibition of the mitogenic activity of VEGF121 for HUVEC [2]: about 50%
- inhibition of VEGF125-mediated HUVEC proliferation ([2]; 15 ug/ml, FIG. 7): about 2 fold
